One block for each binder: values may come before it. Positions of bridges follow the written chain, without caps; N, C: chain ends. Non-standard residues stand in square brackets, D forms with d. No end group written: not given here. AlaL = alanine half of a lanthionine (monosulfide) bridge
How the values were obtained:
[1] = target: SSTR2 Receptor (cloned somatostatin receptor); test: inhibition of radioligand binding to cloned SSTR2
[2] = target: T1, µ-receptor (guinea pig ileum preparation) (guinea pig); test: cell-based or functional assay
[3] = target: T1, µ-receptor (guinea pig ileum …); test: cell-based or functional assay; remark: listed apart in the source

SSTR2 Receptor (cloned somatostatin receptor), sequence (P30875 whole entry): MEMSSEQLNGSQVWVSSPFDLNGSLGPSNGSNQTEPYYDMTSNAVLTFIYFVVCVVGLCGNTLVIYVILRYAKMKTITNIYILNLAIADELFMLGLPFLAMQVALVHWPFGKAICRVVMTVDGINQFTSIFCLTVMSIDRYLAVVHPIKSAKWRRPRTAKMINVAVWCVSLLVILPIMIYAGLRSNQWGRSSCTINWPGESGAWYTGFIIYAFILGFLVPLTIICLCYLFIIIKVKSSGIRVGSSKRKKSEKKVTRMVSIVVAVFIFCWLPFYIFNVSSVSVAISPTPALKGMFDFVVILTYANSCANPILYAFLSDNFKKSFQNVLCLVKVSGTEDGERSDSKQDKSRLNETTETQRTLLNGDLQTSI

IC50 [1]: 0.3 nM
B1: c[AlaL3, AlaL14]-Somatostatin-14 (peptide)
chain: AG[AlaL]KNFFWKTFTS[AlaL]
modifications: bridge 3-14; not fully specified (bridges); printed as c[AlaL3, AlaL14]-Somatostatin-14

GPI IC50 [2]: 0.45 nM
B2: Tyr-c[D-AlaL-Gly-Phe-L-AlaL]-OH (peptide)
peptide: Y[dAlaL]GF[AlaL]-OH
modifications: bridge 2-5; not fully specified (bridges); printed as Tyr-c[D-AlaL-Gly-Phe-L-AlaL]-OH

bioactivity at the GPI relative to [Leu^5]-enkephalin [3]: 400 fold | GPI IC50 [2]: 0.62 nM
B3: Tyr-c[D-AlaL-Gly-Phe-L-AlaL]-NH2 (peptide)
peptide: Y[dAlaL]GF[AlaL]-NH2
modifications: bridge 2-5; not fully specified (bridges); printed as Tyr-c[D-AlaL-Gly-Phe-L-AlaL]-NH2
